Where two headings read alike, the source gives them in different places.
T1: human OX40 expressed on CHO cells (human, UniProt P43489 29-277)
T1 construct: whole, on cells
T1 sequence (looked up): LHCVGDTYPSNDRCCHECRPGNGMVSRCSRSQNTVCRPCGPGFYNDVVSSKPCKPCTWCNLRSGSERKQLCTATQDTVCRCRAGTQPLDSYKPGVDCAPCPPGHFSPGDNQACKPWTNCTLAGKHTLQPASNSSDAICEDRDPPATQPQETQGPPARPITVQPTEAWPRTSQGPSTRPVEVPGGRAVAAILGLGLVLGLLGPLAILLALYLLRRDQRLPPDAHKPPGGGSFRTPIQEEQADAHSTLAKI


Columns and labels:
[1] = target: T2, human CD137 expressed on cells (human, UniProt Q07011 24-255); assay: FACS on CHO cells expressing human CD137 (MFI)
T2 construct: whole, on cells; also called 4-1BB; TNFRSF9
Procedure: (§1) Anti-OX40/CD137 bi-specific antibodies were analyzed by FACS for their binding properties to human OX40 and/or human CD137 expressed on CHO cells. Briefly, cultured cells were harvested, counted and cell viability was evaluated using the Trypan Blue exclusion method. Viable cells were then adjusted to 2×10⁶ cells per mL in PBS containing 2% BSA. 100 μL of this cell suspension were further aliquoted per well into a V-bottom 96-well plate. […] After incubation for 2 hours at 4° C., cells were centrifuged (3 min, 1000×g), washed with 250 μL/well BSA-containing FACS Stain Buffer, resuspended and incubated for an additional 1 hour at 4° C. with 100 μL/well fluorochrome-conjugated anti-IgG antibody for detection of the bisepecific antibody. Cells were then washed with 250 μL/well BSA-containing FACS Stain Buffer, resuspended in 100 μL/well FACS Stain Buffer, acquired and analyzed using a FACS machine. Binding of the bispecific antibodies to human OX40 or human CD137 expressing CHO cells were evaluated and the mean fluorescence intensity is plotted in histograms or dot plots.

[2] = target: T1, human OX40 expressed on CHO cells; assay: FACS on CHO cells expressing human OX40 (MFI)
Procedure: as §1

[3] = target: T2, human CD137 expressed on cells; assay: FACS on CHO cells expressing human CD137 (MFI); remark: listed apart in the source
Procedure: as §1

T2 sequence (Q07011 24-255): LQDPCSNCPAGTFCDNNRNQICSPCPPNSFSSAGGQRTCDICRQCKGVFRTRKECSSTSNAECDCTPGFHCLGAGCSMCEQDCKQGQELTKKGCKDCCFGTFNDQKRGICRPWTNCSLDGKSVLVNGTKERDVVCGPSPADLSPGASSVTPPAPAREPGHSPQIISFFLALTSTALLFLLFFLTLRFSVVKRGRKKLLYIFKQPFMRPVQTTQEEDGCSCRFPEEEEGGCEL

Row | EC50 (read off the curve) [1] [µg/mL] | EC50 (read off the curve) [2] [µg/mL] | EC50 (read off the curve) [3] [µg/mL] | binding result [2] | Binder
1 | ~0.3 | ~0.4 | – | – | Ly767 (bispecific antibody, human IgG1, kappa, Anti-OX40/CD137: Ly598-derived heavy chain fused to Ly1630 scFv (VH-VL); Ly598 light chain) heavy: EVQLVQSGAEVKKPGASVKVSCKASGYTFTDSYMSWVRQAPGQGLEWIGDMYPDNGDSSYNQKFRERVTITRDTSTSTAYLELSSLRSEDTAVYYCVLAPRWYFSVWGQGTLVTVSSASTKGPSVFPLAPSSKSTSGGTAALGCLVKDYFPEPVTVSWNSGALTSGVHTFPAVLQSSGLYSLSSVVTVPSSSLGTQTYICNVNHKPSNTKVDKKVEPKSCDKTHTCPPCPAPELLGPSVFLFPPKPKDTLMISRTPEVTCVVVDVSHEDPEVKFNWYVDGVEVHNAKTKPREEQYNSTYRVVSVLTVLHQDWLNGKEYKCKVSNKALPAPIEKTISKAKGQPREPQVYTLPPSREEMTKNQVSLTCLVKGFYPSDIAVEWESNGQPENNYKTTPPVLDSDGSFFLYSKLTVDKSRWQQGNVFSCSVMHEALHNHYTQKSLSLSPGGGGGSGGGGSGGGGSGGGGSQVQLVQSGAEVKKPGASVKVSCKASGYTFAGFEMHWVRQAPGQGLEWMGAIDPKTGGTDYNQKFKDRVTMTRDTSISTAYMELSRLRSDDTAVYYCARDLGYFDVWGQGTLVTVSSGGGGSGGGGSGGGGSGGGGSDIQMTQSPSSLSASVGDRVTITCRASQDIRSNLNWYQQKPGGAVKLLIYYTSRLHSGVPSRFSGSGSGTDYTLTISSLQPEDFATYFCQQSEKLPRTFGGGTKVEIR light: not shown
2 | – | – | ~0.1 | binds | Ly762 (bispecific antibody, human IgG1, kappa, Ly1630 light chain) heavy: QVQLVQSGAEVKKPGASVKVSCKASGYTFAGFEMHWVRQAPGQGLEWMGAIDPKTGGTDYNQKFKDRVTMTRDTSISTAYMELSRLRSDDTAVYYCARDLGYFDVWGQGTLVTVSSASTKGPSVFPLAPSSKSTSGGTAALGCLVKDYFPEPVTVSWNSGALTSGVHTFPAVLQSSGLYSLSSVVTVPSSSLGTQTYICNVNHKPSNTKVDKKVEPKSCDKTHTCPPCPAPELLGPSVFLFPPKPKDTLMISRTPEVTCVVVDVSHEDPEVKFNWYVDGVEVHNAKTKPREEQYNSTYRVVSVLTVLHQDWLNGKEYKCKVSNKALPAPIEKTISKAKGQPREPQVYTLPPSREEMTKNQVSLTCLVKGFYPSDIAVEWESNGQPENNYKTTPPVLDSDGSFFLYSKLTVDKSRWQQGNVFSCSVMHEALHNHYTQKSLSLSPGGGGGSGGGGSGGGGSGGGGSDIQMTQSPSSLSASVGDRVTITCRASQDISNYLNWYQQKPGKAPKLLIYYTSRLRSGVPSRFSGSGSGTDFTLTISSLQPEDFATYYCQQGHTLPPTFGQGTKVEIKGGGGSGGGGSGGGGSGGGGSEVQLVQSGAEVKKPGASVKVSCKASGYTFTDSYMSWVRQAPGQGLEWIGDMYPDNGDSSYNQKFRERVTITRDTSTSTAYLELSSLRSEDTAVYYCVLAPRWYFSVWGQGTLVTVSS light: DIQMTQSPSSLSASVGDRVTITCRASQDIRSNLNWYQQKPGGAVKLLIYYTSRLHSGVPSRFSGSGSGTDYTLTISSLQPEDFATYFCQQSEKLPRTFGGGTKVEIRRTVAAPSVFIFPPSDEQLKSGTASVVCLLNNFYPREAKVQWKVDNALQSGNSQESVTEQDSKDSTYSLSSTLTLSKADYEKHKVYACEVTHQGLSSPVTKSFNRGEC
3 | – | – | ~0.1 | binds | Ly763 (bispecific antibody, human IgG1, kappa, Ly1630 light chain) heavy: QVQLVQSGAEVKKPGASVKVSCKASGYTFAGFEMHWVRQAPGQGLEWMGAIDPKTGGTDYNQKFKDRVTMTRDTSISTAYMELSRLRSDDTAVYYCARDLGYFDVWGQGTLVTVSSASTKGPSVFPLAPSSKSTSGGTAALGCLVKDYFPEPVTVSWNSGALTSGVHTFPAVLQSSGLYSLSSVVTVPSSSLGTQTYICNVNHKPSNTKVDKKVEPKSCDKTHTCPPCPAPELLGPSVFLFPPKPKDTLMISRTPEVTCVVVDVSHEDPEVKFNWYVDGVEVHNAKTKPREEQYNSTYRVVSVLTVLHQDWLNGKEYKCKVSNKALPAPIEKTISKAKGQPREPQVYTLPPSREEMTKNQVSLTCLVKGFYPSDIAVEWESNGQPENNYKTTPPVLDSDGSFFLYSKLTVDKSRWQQGNVFSCSVMHEALHNHYTQKSLSLSPGGGGGSGGGGSGGGGSGGGGSEVQLVQSGAEVKKPGASVKVSCKASGYTFTDSYMSWVRQAPGQGLEWIGDMYPDNGDSSYNQKFRERVTITRDTSTSTAYLELSSLRSEDTAVYYCVLAPRWYFSVWGQGTLVTVSSGGGGSGGGGSGGGGSGGGGSDIQMTQSPSSLSASVGDRVTITCRASQDISNYLNWYQQKPGKAPKLLIYYTSRLRSGVPSRFSGSGSGTDFTLTISSLQPEDFATYYCQQGHTLPPTFGQGTKVEIK light: DIQMTQSPSSLSASVGDRVTITCRASQDIRSNLNWYQQKPGGAVKLLIYYTSRLHSGVPSRFSGSGSGTDYTLTISSLQPEDFATYFCQQSEKLPRTFGGGTKVEIRRTVAAPSVFIFPPSDEQLKSGTASVVCLLNNFYPREAKVQWKVDNALQSGNSQESVTEQDSKDSTYSLSSTLTLSKADYEKHKVYACEVTHQGLSSPVTKSFNRGEC
4 | ~0.2 | ~0.4 | – | – | Ly766 (bispecific antibody, human IgG1, kappa, Anti-OX40/CD137: Ly598-derived heavy chain fused to Ly1630 scFv (VL-VH); Ly598 light chain) heavy: EVQLVQSGAEVKKPGASVKVSCKASGYTFTDSYMSWVRQAPGQGLEWIGDMYPDNGDSSYNQKFRERVTITRDTSTSTAYLELSSLRSEDTAVYYCVLAPRWYFSVWGQGTLVTVSSASTKGPSVFPLAPSSKSTSGGTAALGCLVKDYFPEPVTVSWNSGALTSGVHTFPAVLQSSGLYSLSSVVTVPSSSLGTQTYICNVNHKPSNTKVDKKVEPKSCDKTHTCPPCPAPELLGPSVFLFPPKPKDTLMISRTPEVTCVVVDVSHEDPEVKFNWYVDGVEVHNAKTKPREEQYNSTYRVVSVLTVLHQDWLNGKEYKCKVSNKALPAPIEKTISKAKGQPREPQVYTLPPSREEMTKNQVSLTCLVKGFYPSDIAVEWESNGQPENNYKTTPPVLDSDGSFFLYSKLTVDKSRWQQGNVFSCSVMHEALHNHYTQKSLSLSPGGGGGSGGGGSGGGGSGGGGSDIQMTQSPSSLSASVGDRVTITCRASQDIRSNLNWYQQKPGGAVKLLIYYTSRLHSGVPSRFSGSGSGTDYTLTISSLQPEDFATYFCQQSEKLPRTFGGGTKVEIRGGGGSGGGGSGGGGSGGGGSQVQLVQSGAEVKKPGASVKVSCKASGYTFAGFEMHWVRQAPGQGLEWMGAIDPKTGGTDYNQKFKDRVTMTRDTSISTAYMELSRLRSDDTAVYYCARDLGYFDVWGQGTLVTVSS light: not shown
5 | – | ~0.9 | ~0.2 | – | Ly764 (bispecific antibody, human IgG1, kappa, Anti-OX40/CD137: Ly1630 heavy chain) heavy: QVQLVQSGAEVKKPGASVKVSCKASGYTFAGFEMHWVRQAPGQGLEWMGAIDPKTGGTDYNQKFKDRVTMTRDTSISTAYMELSRLRSDDTAVYYCARDLGYFDVWGQGTLVTVSSASTKGPSVFPLAPSSKSTSGGTAALGCLVKDYFPEPVTVSWNSGALTSGVHTFPAVLQSSGLYSLSSVVTVPSSSLGTQTYICNVNHKPSNTKVDKKVEPKSCDKTHTCPPCPAPELLGPSVFLFPPKPKDTLMISRTPEVTCVVVDVSHEDPEVKFNWYVDGVEVHNAKTKPREEQYNSTYRVVSVLTVLHQDWLNGKEYKCKVSNKALPAPIEKTISKAKGQPREPQVYTLPPSREEMTKNQVSLTCLVKGFYPSDIAVEWESNGQPENNYKTTPPVLDSDGSFFLYSKLTVDKSRWQQGNVFSCSVMHEALHNHYTQKSLSLSPGK light: DIQMTQSPSSLSASVGDRVTITCRASQDIRSNLNWYQQKPGGAVKLLIYYTSRLHSGVPSRFSGSGSGTDYTLTISSLQPEDFATYFCQQSEKLPRTFGGGTKVEIRRTVAAPSVFIFPPSDEQLKSGTASVVCLLNNFYPREAKVQWKVDNALQSGNSQESVTEQDSKDSTYSLSSTLTLSKADYEKHKVYACEVTHQGLSSPVTKSFNRGECGGGGSGGGGSGGGGSGGGGSDIQMTQSPSSLSASVGDRVTITCRASQDISNYLNWYQQKPGKAPKLLIYYTSRLRSGVPSRFSGSGSGTDFTLTISSLQPEDFATYYCQQGHTLPPTFGQGTKVEIKGGGGSGGGGSGGGGSGGGGSEVQLVQSGAEVKKPGASVKVSCKASGYTFTDSYMSWVRQAPGQGLEWIGDMYPDNGDSSYNQKFRERVTITRDTSTSTAYLELSSLRSEDTAVYYCVLAPRWYFSVWGQGTLVTVSS
6 | – | – | ~0.2 | binds | Ly765 (bispecific antibody, human IgG1, kappa, Anti-OX40/CD137: Ly1630 heavy chain) heavy: QVQLVQSGAEVKKPGASVKVSCKASGYTFAGFEMHWVRQAPGQGLEWMGAIDPKTGGTDYNQKFKDRVTMTRDTSISTAYMELSRLRSDDTAVYYCARDLGYFDVWGQGTLVTVSSASTKGPSVFPLAPSSKSTSGGTAALGCLVKDYFPEPVTVSWNSGALTSGVHTFPAVLQSSGLYSLSSVVTVPSSSLGTQTYICNVNHKPSNTKVDKKVEPKSCDKTHTCPPCPAPELLGPSVFLFPPKPKDTLMISRTPEVTCVVVDVSHEDPEVKFNWYVDGVEVHNAKTKPREEQYNSTYRVVSVLTVLHQDWLNGKEYKCKVSNKALPAPIEKTISKAKGQPREPQVYTLPPSREEMTKNQVSLTCLVKGFYPSDIAVEWESNGQPENNYKTTPPVLDSDGSFFLYSKLTVDKSRWQQGNVFSCSVMHEALHNHYTQKSLSLSPGK light: DIQMTQSPSSLSASVGDRVTITCRASQDIRSNLNWYQQKPGGAVKLLIYYTSRLHSGVPSRFSGSGSGTDYTLTISSLQPEDFATYFCQQSEKLPRTFGGGTKVEIRRTVAAPSVFIFPPSDEQLKSGTASVVCLLNNFYPREAKVQWKVDNALQSGNSQESVTEQDSKDSTYSLSSTLTLSKADYEKHKVYACEVTHQGLSSPVTKSFNRGECGGGGSGGGGSGGGGSGGGGSEVQLVQSGAEVKKPGASVKVSCKASGYTFTDSYMSWVRQAPGQGLEWIGDMYPDNGDSSYNQKFRERVTITRDTSTSTAYLELSSLRSEDTAVYYCVLAPRWYFSVWGQGTLVTVSSGGGGSGGGGSGGGGSGGGGSDIQMTQSPSSLSASVGDRVTITCRASQDISNYLNWYQQKPGKAPKLLIYYTSRLRSGVPSRFSGSGSGTDFTLTISSLQPEDFATYYCQQGHTLPPTFGQGTKVEIK
